Experimental data as given in the RNAGym collection of RNA variant scans (doi:10.1073/pnas.2313332121).
Variants at the floor of the assay were thinned out.

B1: TPR 5TU (parent)
chain: GGAUCUUCUCGAUCUAACAAAAAAGACAAAUCUGCCACAAAGCUUGAGAGCAUCUUCGGAUGCAGAGGCGGCAGCCUUCGGUGGCGCGAUAGCGCCAACGUUCUCAACUAUGACACGCAAAACGCGUGCUCCGUUGAAUGGAGUUUAUCAUG

Variants of: B1
Experiment: polymerase ribozyme fitness, log enrichment relative to wild type (log ratio); higher = more active; in vitro selection for triplet polymerase activity
In short: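 Each subunit of a heterodimeric triplet polymerase ribozyme was mutagenized into a library by PCR, transcribed, and subjected to one round of in vitro selection, run in triplicate. Libraries were annealed with a biotinylated primer, the partner subunit and triplets, incubated frozen at −7 °C, and extended constructs were gel-excised, captured on streptavidin beads and recovered by RT-PCR. Input and output libraries were sequenced on Illumina, keeping genotypes with ≥10 input reads and ≥1 read per output. Fitness is log base 2 of genotype enrichment divided by wild-type enrichment, from inverse-variance-weighted replicate averages.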

Compared with A23C A24G A28C C63U G67A A121U U144A, A23U G94A is higher in “polymerase ribozyme fitness (log ratio)” value: ≤ -4.2 for the first, -3.99 for the second.

A23U U77C C87U and A23U G42C C54U C76A C93A U127C G133C cannot be ordered by “polymerase ribozyme fitness (log ratio)” value: ≤ -4.2 for the first, ≤ -4.2 for the second.

A23G G48U G65C C72U G81C G83U and A23G A52G C57U C95A C96G U102G A107G G141A cannot be ordered by “polymerase ribozyme fitness (log ratio)” value: ≤ -4.2 for the first, ≤ -4.2 for the second.

First: A23G C38G C95U C114G
Second: A22U G141A
The “polymerase ribozyme fitness (log ratio)” value of the first is lower: -3.85 for the first, 2.05 for the second.

A22U U56A C93G A98G C108A C114G U151A and A23U G48C C54A C75G G80C C96U G140A cannot be ordered by “polymerase ribozyme fitness (log ratio)” value: ≤ -4.2 for the first, ≤ -4.2 for the second.

Compared with A23G C76A, A24G A30U G42U C72U A91G A120C is lower in “polymerase ribozyme fitness (log ratio)” value: -2.49 for the first, ≤ -4.2 for the second.

A23C C27G A60G A97C G124U and A24C C93U C114U A119G cannot be ordered by “polymerase ribozyme fitness (log ratio)” value: ≤ -4.2 for the first, ≤ -4.2 for the second.

A23U G59U C93U and A24C G86U U90A U101A A106G A113U A120U G126A cannot be ordered by “polymerase ribozyme fitness (log ratio)” value: ≤ -4.2 for the first, ≤ -4.2 for the second.

First: A23G C38U U61A
Second: A22U U55A C96U
The “polymerase ribozyme fitness (log ratio)” value of the first is lower: ≤ -4.2 for the first, -0.172 for the second.

First: A23U G58C G88U G136A
Second: A22U U135C
The “polymerase ribozyme fitness (log ratio)” value of the first is lower: ≤ -4.2 for the first, -1.64 for the second.

A22U C103G A110C and A23U G88U C116U G140U G143U U146G cannot be ordered by “polymerase ribozyme fitness (log ratio)” value: ≤ -4.2 for the first, ≤ -4.2 for the second.

Going from A22U U55A A115C C123U U130G to A23U A29C A119U, the “polymerase ribozyme fitness (log ratio)” value falls from -2.84 to ≤ -4.2.

A23U A30G A41C A47G U53G U56A C75A C93U C108G G133C G136A and A23G G62A A73U C76G G88A C105U A106G cannot be ordered by “polymerase ribozyme fitness (log ratio)” value: ≤ -4.2 for the first, ≤ -4.2 for the second.

A23U C54U G74U U78G and A24C C72U C85G C131G G133U cannot be ordered by “polymerase ribozyme fitness (log ratio)” value: ≤ -4.2 for the first, ≤ -4.2 for the second.

A24G A37U A115G U130C U135A A150U and A23G A41C U90G A110G cannot be ordered by “polymerase ribozyme fitness (log ratio)” value: ≤ -4.2 for the first, ≤ -4.2 for the second.

A24C A64C and A24C G46A G94U C95A A115C cannot be ordered by “polymerase ribozyme fitness (log ratio)” value: ≤ -4.2 for the first, ≤ -4.2 for the second.

Compared with A23C A98U A113U, A22U U56A G92A is higher in “polymerase ribozyme fitness (log ratio)” value: -4.18 for the first, -3.22 for the second.

Going from A23U C35A A41C U55G G86C C95G C105A to A23G C87U, the “polymerase ribozyme fitness (log ratio)” value rises from ≤ -4.2 to -3.14.

Going from A23G G50C G84U C85G A150C to A23U A24C C51U U53A A98U, the “polymerase ribozyme fitness (log ratio)” value falls from -3.98 to ≤ -4.2.

A22U G59A A66U G86A A120G A138G and A23G A28G A39U A40U U44A U61A U78G C85U U151G cannot be ordered by “polymerase ribozyme fitness (log ratio)” value: ≤ -4.2 for the first, ≤ -4.2 for the second.

First: A22U G88U C116A A119U
Second: A23U U53A C96A C114G G143A U146G
The “polymerase ribozyme fitness (log ratio)” value of the first is higher: -4.1 for the first, ≤ -4.2 for the second.

First: A23U C38U
Second: A22U G59A
The “polymerase ribozyme fitness (log ratio)” value of the first is lower: -4.06 for the first, -0.47 for the second.

Going from A23G C35A A142G to A24G A30U U31C U101G, the “polymerase ribozyme fitness (log ratio)” value falls from -3.78 to -3.98.

A23G A49U C51U U53A A60G U61A G71U A73G C85A C87A C105G and A23U C54A G83U U102G cannot be ordered by “polymerase ribozyme fitness (log ratio)” value: ≤ -4.2 for the first, ≤ -4.2 for the second.

A22U G25A A41C A91G G94C and A24G A30G A47U A52C A60C C76A G100A C114A C118G G140A cannot be ordered by “polymerase ribozyme fitness (log ratio)” value: ≤ -4.2 for the first, ≤ -4.2 for the second.

A23U C76G and A24C C54G C76U U78A C105A A147C cannot be ordered by “polymerase ribozyme fitness (log ratio)” value: ≤ -4.2 for the first, ≤ -4.2 for the second.

First: A22U C93A
Second: A23U A37U A97U U111C
The “polymerase ribozyme fitness (log ratio)” value of the first is higher: -2.34 for the first, ≤ -4.2 for the second.

Compared with A23U G42C C75U U82G G84U C96A, A22U U31C C32U is higher in “polymerase ribozyme fitness (log ratio)” value: ≤ -4.2 for the first, -3 for the second.

A22U U55A A66C U77A C87A and A22U G94C C95G C96A A122U cannot be ordered by “polymerase ribozyme fitness (log ratio)” value: ≤ -4.2 for the first, ≤ -4.2 for the second.

A24C A30U C43A C57U C87G and A23U C51U C93U G100U C123G cannot be ordered by “polymerase ribozyme fitness (log ratio)” value: ≤ -4.2 for the first, ≤ -4.2 for the second.

First: A23C G88U U144G
Second: A22U C99U
The “polymerase ribozyme fitness (log ratio)” value of the first is lower: ≤ -4.2 for the first, -0.0944 for the second.

Going from A22U C99A to A23C G59A G92U U104C A113C C123U G124A, the “polymerase ribozyme fitness (log ratio)” value falls from 0.261 to ≤ -4.2.

A23G U33G G100C U148C and A23C U33A A41G U45A C87G C103G cannot be ordered by “polymerase ribozyme fitness (log ratio)” value: ≤ -4.2 for the first, ≤ -4.2 for the second.

Going from A23C A29U G68C U82G G133U U134A A138U to A22U C108U, the “polymerase ribozyme fitness (log ratio)” value rises from ≤ -4.2 to -2.85.

A23U C85U A91G G126C G140U and A23C C36U A60C G86A A121U cannot be ordered by “polymerase ribozyme fitness (log ratio)” value: ≤ -4.2 for the first, ≤ -4.2 for the second.

Compared with A23U A30G G42U A52U U56A C72G C95G C114G U139A, A23G A40C G81A U145C is higher in “polymerase ribozyme fitness (log ratio)” value: ≤ -4.2 for the first, -3.98 for the second.

A24C C32G C43G C87G U104G A115C and A23C C54U U55A G71A A122G cannot be ordered by “polymerase ribozyme fitness (log ratio)” value: ≤ -4.2 for the first, ≤ -4.2 for the second.

A22U G58A A60C U111A and A24C U56A G68A G141A cannot be ordered by “polymerase ribozyme fitness (log ratio)” value: ≤ -4.2 for the first, ≤ -4.2 for the second.

A24C G86C G143A U148C and A23U A26U C27U A41U C93U C95A cannot be ordered by “polymerase ribozyme fitness (log ratio)” value: ≤ -4.2 for the first, ≤ -4.2 for the second.

Compared with A24C C32U A49C C85G G86A A91G C123G C132A, A23G G59U C95U A110G is higher in “polymerase ribozyme fitness (log ratio)” value: ≤ -4.2 for the first, -3.86 for the second.

A23U C93A and A23G A26U C54A U90G A91G cannot be ordered by “polymerase ribozyme fitness (log ratio)” value: ≤ -4.2 for the first, ≤ -4.2 for the second.

Compared with A23G G50U U146G, A24C C54A A60G A73U U77G is lower in “polymerase ribozyme fitness (log ratio)” value: -3.73 for the first, ≤ -4.2 for the second.
